Measurements from the DeepSol protein solubility set.

Test: soluble on expression in E. coli; label from the status in PepcDB or PDB records

Soluble on expression in E. coli, not soluble:
MGSDKIHHHHHHMTSPNTTQGAADPIQSYLNQGLRNYWYPVAPSWQVGDAPVGITRLGDQIVLWRDKEGKVRALEDRCPHRGARLSLGWNLGGSVACWYHGIEVDGGGTVTKVPAVSNCPLEGQKCVKSYPVEEHAGAIFLWFGDDAHKEPAPLVLPEELVGEEYASFLCMSHWKCNYQYAIDNVMDPMHGAYLHATSHSMAEGDKQADMRVRKTETGLMFEKIGQRDVNFDWVELGETGCLWMRLAIPYKKKFGPGGNFGIIGFAVPVDEDNCQVYFWRTRKVQGWQRDAWRFMYRNRLEGLHWAVLEQDRYVLESMAPNARDHEFLYQHDVGMTRVRRMLRQRAQQHFADLDAHRAQAVSATPAAAEAGHSHA
MGSDKIHHHHHHMTSTLPVPEPHQSDSANTDANSLSWEEELDSAIFSFEDIQTELNYKQAQTALRNLVANLDLTPQEKTGLETEIADLETMLGKLDRMVVQIAAFGMVGRGKSSLLNSLVGQTVFETGPLHGVTRTAQTVNWSISEEAIGETERALRVTLPGVGQSQVKLIDTPGLDEVDGATRAVLAEQIAKQADLILFVISGDMTKLEYAALSQLREAGKPIILVFNKVDQYPEADRMAIYHKIRDERVRELLTPLEIVMAAASPLVKTAIRRPDGTRGIQLRTGNAQVEELKLKILEILHREGKALVALNTMLYADVVNEQLIERKLMIREQNANQLIWKAVMTKALAIALNPVTVVDILSSVVIDIALILGLSKLYGFSMTEAGAVQLLQKIALSMGGIGASELLANLGLSGLKTLLGISATATAGVALGPYISVAVTQGGVAGVSSYGIGQVTKVYLANGATWGPDGPKAVINRILANLDETSILNRIKDELLHKVRLRK
MGSDKIHHHHHHMTTATPLLSLQKPTPIALAEIEESLSQLWANQQHSGAGALVSRAATFSIVVYEPEEFQQILAALGLYHGHLDGLHGPMTRAAIAQAQTQFGLPSTGRPDSATFKALRQAYQALKHSPSLTNQDLRGAVLSNVIATQNPCRIVSLCPTLEGDRPISAEVSAYCPITSAKQASLICCEAVTLRGSQAEMEAIGTFVSELLLPGLPRYVWWKATPNPEQLLFQQLANSCNCMIFDSSYFSDPEAEFLRFQDLIDQETYIADLNWHRLAAWQELTAAAFDPPERRDGLLEVDQLVIDYEKGNPAQALMYMGWIASRLGWQPVSYRCEGGEYDLRQIEFRTEDDRMVKVELAGIPVGDPGLVLGDLIALRLTSENPDADCCTILCSETTGCMRMEAGGGAQSCRTEQVAPPSNETSESLLAMQMQRWGRDALYEESLAVIAVALRQRTHA
MGSDKIHHHHHHMTTFHDLPLEERLTLARLGTSHYSRQLSLVDNAEFGEHSLLEGWTRSHLIAHVAYNAIALCNLMHWANTGEETPMYVSPEARNEEIAYGSTLNPDALRNLHEHSVARLDVAWRETSEDAWSHEVLTAQGRTVPASETLWMRSREVWIHAVDLGAVATFGDIPEVILRTLAAEITQKWTSQGAGEGLVLLDEPSSTRYPAAPGQDEVVVSGSLAGIVRYAAGRGSDGVTSSTGEVPEPPRWL
MGSDKIHHHHHHMTTNCVIVSQRYPPEKGGNASRIHDTAVNLGDEFNVTVLAPSLCYPPGNFERTWKRKQTERDEGVIVHRLWTWQPQRENPSLLRRLPYYVIFALHAALWLVVNFRQYDVVMTSTPPITTGFPGLVAAAIGNPWVIDVRDLWIENSIALGYIQADSPLVKAGRTFQRLALHSADRITVTTETLRDAVGDTYGSELRDRVRVVPNGVDTDRFSSVSTPENNDSRIVYTGNIGSAQALEPCIRAMQHVSSDNALLQLVGDGDEVSRLKSVTERLGLEDRVEFVGLVDRERIPEILDSATVGLAPIKDSPELDYAIPTKLYEYMACSLPVVVTGRGEIKRFTTDTDVGIHTEPDPESIAVAIETLLENPEKRVAMGQDGHRVVSEEYDRQAIAGQLGEVFRTLTVTERRESCTTPDPDHD
MGSDKIHHHHHHMTTNIKTDFSPPATATPVLEMQGIAKRFHGVPALQGVNLTIYPGEVHALMGENGAGKSTLMKILAGAYIADEGEIRINGKGVKITDPGTARQAGINLIYQELNVAPNLTVTENIFMGSELTRGQFLDRKAMELEAQQVLASLGASFAPTDIVGTLAIAEQQQVEIARALKDNSRILVMDEPTAALSDRETERLFEVIRKLRNDGIAIIYISHRMEEIYALADRISVLRDGQYIGSLTREEISPQRLVQMMVGRSMQDFYEHQRQSNPGPVVLEVRNISDGRKVQPASFQLRAGEILGLAGLVGAGRTEVSRLIFGADRKVSGEVFLNGKKLEIHSPSDAIAVGIGYVPEDRKDQGLFLEMSSRKNIGLNRLKQDANLGIVNWGSVNKIATDAVENFHIRLANLEIRAVDLSGGNQQKLLLARWLAINPRVLMLDEPTRGVDIGAKSEIYRIISDLSAQGVAILMVSSELPEIVGLSDRVLVMREGQLVGELDNSIGKEITQENIMHYATGASEVTAS
MGSDKIHHHHHHMTTVLPLDPARYTPHLLHSAERMWPETNCYVDLWIEVLCVLGLPPEAMLGFTLTQDFEGDQFTFFKVPLEDLEALYGIRVTELAIFDRAEAHVAQQISRGRLCLVEMDSYFMPDTAGVGYRQHHGKTTVGVNRLDLAGRSMDYFHNGGFFRLEAEDFDGIWQLAAPETAPFLPYTEFAKFPETRPDETHLRAVAKRLFAFHFARRPQGNPFAGFAEVFPAQVEAIAERPFGYFHTYAFNTLRQFGANFELLASHLKWLAADDRYTNEIAEALRISELAKTVQFQLARAVTRKKFDPLKAALDPAIDAWDRLMTGLADKMA
MGSDKIHHHHHHMTWSATWRLSLELRQLRYLVGVVDAGSVSRAAQSLHVAQPALSAQIARLEEELGARLLIRSVRGVVPTEAGTAVLRQARLILKQVDAIAELAHEADADPTGSVSLGLPWTVRSVVGLPLLHQVRERLPQVRLEIIEGPSPALAMQTAQGKLDLAVVFENTPDNSLVLKPLATESLLLVGQRGSLVGRHNLKLEELAGLPLLMLSRPNGVREDIERQCAKRGIRLKIVAEINAPSLLIDAVRGGLGYSVLPACGIEQACRDGLLDAITLEGGSMQRTAHLGTSKLFALSRAAEHTAALLQESVAHAIGDRRWQATSPNEAD
MGSDKIHHHHHHMTYQAREAGLKEVEQLVHEQAVYQYLQENNEGGQMDKDQMLFLHEAISGSDLTDAAAYRVVSATLYMILAHDTHEKIDEPGDVVKLTRKEQELTVLAGDFYSALYYRTLAELEMIPLLRALQSGVQETNTAKTNIYQLHVATDEEYLSQLTLTNAAIFAKFAKYFMKDETFIALGCQFFLLKRLQTELATYKEIGASRLKRAFDHGYFAKEAVSNFESWLVAIIRDVKSEVERLKTEAEPLSNLLEKRIIEVIND
MGSDKIHHHHHHMVEFQSRIGKDGRLTVMEIPFDARETFQMPKGTIFVCGTINGIPYRGKLLSRGNGKQVLTIDKTLQKGLGYAGQDFPVNVAMACENQAEMVDEEKEAIPRLHSDMEAITAIAGRASVRKYMDKTVEPQKLEVILRAGLSAPSAKNKRPFHFVVVEDKAVLGAWAAGNSNAKMLSHAPCCIVVCGDGNVEGTRDFLVGGCAAATQNMLIAIHALGLGGVWCGVLRGKEWSRQVAADLYLPVKVEPLAVIALGYPTEQEKAPVPWDMKSHIHYERW
MGSDKIHHHHHHMVEKLKPRYSVVWTNKIAEVPQNAWNALAMPLKTPFLEWEWLNNLETSQSATAKTGWLPNHLTLWRDRTLIAAAPLYLKGHSSGEFVFDHQWAELADRIGVQYYPKLLGMTPFTPAEGYRFLIAPGEDEDEITAMMVHEIDTFCSKNRISGCHFLYVDPQWRPMLERHGFTTWLHHSYVWENAGFKTFDDYLKVFNANQRRNIKRERKAVEKAGLRLQPLSGDEIPYSLFPSMYQFYADTCDKFGWWGSKYLTQRFFEQLHNDYRHRVLFVAAYSEEDNSHPLGMSFCLFKGDKLYGRYWGSFQEIDCLHFDACYYAPIEWAIANGIQIFDPGAGGRHKKRRGFPAMPNHSLHRFYNNRLGQIIRPYIKEVNQLEQQEIEAINAELPFSNRDS
MGSDKIHHHHHHMVEQLKPRYSSVWINKIAEVPQDAWDALALPLKTPFLEWDWLNNLETSHSATAKTGWLPNHLTLWRDRTLIAVAPLYIKGHSYGEFVFDHQWAELAERIGVQYYPKLLGMTPFTPAEGYRFLIADGEDEEEITAMMVHEIDSFCVKHNISSCHFLYVDPQWQPVLEKQGFTAWLHHSFIWENSGFQNFDDYLTVFNANQRRNIKRERKAVEKAGLQLQAVTGDAIPKSLFPLMYQFYADTCDKFGWWGSKYLTKQFFEQLHHNYRHRVVFFPAYHEQDPRQPLGMSFCLFKDDRLYGRYWGSFQEIDCLHFDACYYAPIEWAIANGIQSFDPGAGGRHKKRRGFPAAPNYSLHRFYNSRLGQILRPYINEVNQLEEQEIAAINAELPFSQK
MGSDKIHHHHHHMVHVKMKGSKMLFEALLKEGVDTIFGIPGGAIINVYDELCNYEDKINFYLFRHEQGATHAADGYARVTGKPGVVIVTSGPGATNTVTGIATAYMDSIPIVVITGQVPTSFIGTDAFQEVDVTGITMPITKHNHLVTSIEELPYAIKEMFYVATTGRPGPVLLDFPKDIQTAEGEFNYPDTVEIPGYKPTVKGHPKQIKKAVELLKESKRPVVIVGGGANLSGAMDLVNQFIDKFKVPAVSTLMGRGVNPSDEKLYYEGIGMHGTYYGNYAVANADLIIALGVRFSDRILGNPRTFAKNARIVHVDIDPAEIGKNVRVDVPIVGDLKSVLEEFLKYEIETDFSDWIEELQEIKKKYPLTYKRDGKLIKPQYVVEKVNEVFPDDTVVVADVGQNQMWVAQFYKFKHQRSFLCSGGLGTMGYALPAGIGAKIGAPDKEVVVFAGDGGFQMNIQELMTIKRYNLPVKIIVMDNKALGMVRQWQQLFFNCRYSATILSDNPDFAKIAEAVGIKAMRIEKPDQVDEAIEKLAKSKEPMLIHAVVDPAENVLPMVPPGGDVGTPLIEAPYDETFVERVLKVIEESRRGDER
MGSDKIHHHHHHMVIKNIDAATVAKKFLVRGYNIDPKAAELICKSGLFSDELVDKICRIANGGFIIEKSVVEEFLRNLSNLKPATLTPRPEERKVEEVKASCIALKVIKDITGKSSCQGNVEDFLMYFNSRLEKLSRIIRSRVNTTPIAHAGKVRGNVSVVGMVNEVYERGDKCYIRLEDTTGTITCVATGKNAEVARELLGDEVIGVTGLLKGSSLYANRIVFPDVPINGNGEKKRDFYIVFLSDTHFGSKEFLEKEWEMFVRWLKGEVGGKKSQNLAEKVKYIVIAGDIVDGIGVYPGQEDDLAISDIYGQYEFAASHLDEIPKEIKIIVSPGNHDAVRQAEPQPAFEGEIRSLFPKNVEHVGNPAYVDIEGVKVLIYHGRSIDDIISKIPRLSYDEPQKVMEELLKRRHLSPIYGGRTPLAPEREDYLVIEDVPDILHCGHIHTYGTGFYRGVFMVNSSTWQAQTEFQKKVNLNPMPGNVAVYRPGGEVIRLRFYGE
MGSDKIHHHHHHMVKAVVLLSGGLDSATVLAIARQQGYECYALSVSYGQRHGAELAAAKNLARSLGATAHKIIQVDLSTFGGSALIDKEREIPTDGVTPGIPSTYVPARNTIMLSIALAWAEVLGSGDIFIGVNAIDYSGYPDCRPEYIEAFETMANVATKAGIEGTRLAIHAPLMNLSKAEIIKRGGVLGVDYSMTVSCYQADDAGLACGVCDSCRLRRAGFESADVPDVTRYHAGFRQTPAS
MGSDKIHHHHHHMVKKREGDEVQSELMRILAEKQERKENIALVTVISSNSPRGCRAGEMMLVDRFGYIIGDGIGDSLLQENAQREAQICINEGISRRVILPSEEGMTEVFINAFCHRDQLIIVGSGNVALNVYRIASIVGYSITVIDNRAETLSRERFPEAKELLLGDIVELLKAYNIDENTSIVLLSYHHEFDEAALLTVIHSPARYIGIMGNKHKVTAYFSKLNELNIAEELISRVHVPVGIDIGGERAAEIALAVVAEMQAIKYGRAGGFRILQSEITGKVERDELF
